Test results from paper PMC6182392.

Target: Filgrastim (recombinant human granulocyte-colony stimulating factor from Escherichia coli) (human) (UniProt P09919)
Experiment: SEC; HP-SEC, TSKgel G3000SWXL, 50 mM ammonium hydrogen carbonate pH 7.0, column 30°C; expired PDgrastim diluted to 0.25 mg/ml in 100 mM sodium acetate pH 5.0; dimer and oligomer assigned by retention relative to the monomer (Ph. Eur.)

## Filgrastim (recombinant human granulocyte-colony stimulating factor from Escherichia coli) (from UniProt P09919-2 31-204) (ligand)
  relative peak area of dimer: 3.6%
  relative peak area of oligomer: 0.1%
  stoichiometry N: 2
